Assays:
bovine-brain calmodulin = bovine-brain calmodulin (bovine, UniProt P62157 1-149); test: other fluorescence titration
[1] = biological target: Alexa Fluor 488 calmodulin (UniProt P62157 1-149); test: other fluorescence titration

Row | Binder | stoichiometry N (bovine-brain calmodulin) | Kd [1]
1 | CRKHSIATFLQARWRGYHQRQKFL [bullfrog Myo1c IQ1 peptide] | 1 peptide per calmodulin | 
2 | CKRKWAVDVVRRFIKGFIYRNQPR [bullfrog Myo1c IQ3 peptide] | 1 peptide per calmodulin | 2000 nM
3 | CHMKHSAVEIQSWWRGTIGRRKAA [bullfrog Myo1c IQ2 peptide] | 1 peptide per calmodulin | 
